Data: the supplement of paper PMC6379048

Experiments:
Assay in all cases: Kd (EC50 corrected by depletion factor)
[1] = molecular target: T1, FIP1L1 (UniProt Q6UN15)
T1 sequence: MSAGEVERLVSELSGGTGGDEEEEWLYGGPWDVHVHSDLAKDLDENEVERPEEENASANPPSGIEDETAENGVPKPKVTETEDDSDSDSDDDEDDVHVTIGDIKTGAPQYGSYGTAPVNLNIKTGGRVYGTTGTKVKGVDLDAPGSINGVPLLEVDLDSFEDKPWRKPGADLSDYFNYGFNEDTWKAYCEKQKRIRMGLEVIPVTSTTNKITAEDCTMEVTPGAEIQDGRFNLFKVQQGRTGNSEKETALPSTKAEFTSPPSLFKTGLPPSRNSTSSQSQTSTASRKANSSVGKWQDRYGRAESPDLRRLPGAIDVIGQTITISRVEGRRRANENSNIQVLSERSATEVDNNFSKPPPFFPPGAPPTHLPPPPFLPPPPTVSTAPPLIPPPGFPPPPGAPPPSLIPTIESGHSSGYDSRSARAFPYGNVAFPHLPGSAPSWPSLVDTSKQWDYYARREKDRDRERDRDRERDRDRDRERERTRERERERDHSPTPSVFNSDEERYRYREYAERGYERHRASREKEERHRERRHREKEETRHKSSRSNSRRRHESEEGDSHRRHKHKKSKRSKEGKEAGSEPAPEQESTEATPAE
In short: (§1)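 Free RNA oligos (0 nM to 30 μM) competed for 1 h at 4°C in HEK293-FT lysate (2.5 mg protein/well) before a 30 min, 4°C pulldown with the same oligos on NHS-Sepharose beads. Bound proteins were quantified by label-free LC-MS/MS and normalised to the control. Kd was found by multiplying EC50, from a four-parameter log-logistic fit, by a protein-dependent depletion factor.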

[2] = molecular target: T2, WDR33 (UniProt Q9C0J8)
T2 sequence: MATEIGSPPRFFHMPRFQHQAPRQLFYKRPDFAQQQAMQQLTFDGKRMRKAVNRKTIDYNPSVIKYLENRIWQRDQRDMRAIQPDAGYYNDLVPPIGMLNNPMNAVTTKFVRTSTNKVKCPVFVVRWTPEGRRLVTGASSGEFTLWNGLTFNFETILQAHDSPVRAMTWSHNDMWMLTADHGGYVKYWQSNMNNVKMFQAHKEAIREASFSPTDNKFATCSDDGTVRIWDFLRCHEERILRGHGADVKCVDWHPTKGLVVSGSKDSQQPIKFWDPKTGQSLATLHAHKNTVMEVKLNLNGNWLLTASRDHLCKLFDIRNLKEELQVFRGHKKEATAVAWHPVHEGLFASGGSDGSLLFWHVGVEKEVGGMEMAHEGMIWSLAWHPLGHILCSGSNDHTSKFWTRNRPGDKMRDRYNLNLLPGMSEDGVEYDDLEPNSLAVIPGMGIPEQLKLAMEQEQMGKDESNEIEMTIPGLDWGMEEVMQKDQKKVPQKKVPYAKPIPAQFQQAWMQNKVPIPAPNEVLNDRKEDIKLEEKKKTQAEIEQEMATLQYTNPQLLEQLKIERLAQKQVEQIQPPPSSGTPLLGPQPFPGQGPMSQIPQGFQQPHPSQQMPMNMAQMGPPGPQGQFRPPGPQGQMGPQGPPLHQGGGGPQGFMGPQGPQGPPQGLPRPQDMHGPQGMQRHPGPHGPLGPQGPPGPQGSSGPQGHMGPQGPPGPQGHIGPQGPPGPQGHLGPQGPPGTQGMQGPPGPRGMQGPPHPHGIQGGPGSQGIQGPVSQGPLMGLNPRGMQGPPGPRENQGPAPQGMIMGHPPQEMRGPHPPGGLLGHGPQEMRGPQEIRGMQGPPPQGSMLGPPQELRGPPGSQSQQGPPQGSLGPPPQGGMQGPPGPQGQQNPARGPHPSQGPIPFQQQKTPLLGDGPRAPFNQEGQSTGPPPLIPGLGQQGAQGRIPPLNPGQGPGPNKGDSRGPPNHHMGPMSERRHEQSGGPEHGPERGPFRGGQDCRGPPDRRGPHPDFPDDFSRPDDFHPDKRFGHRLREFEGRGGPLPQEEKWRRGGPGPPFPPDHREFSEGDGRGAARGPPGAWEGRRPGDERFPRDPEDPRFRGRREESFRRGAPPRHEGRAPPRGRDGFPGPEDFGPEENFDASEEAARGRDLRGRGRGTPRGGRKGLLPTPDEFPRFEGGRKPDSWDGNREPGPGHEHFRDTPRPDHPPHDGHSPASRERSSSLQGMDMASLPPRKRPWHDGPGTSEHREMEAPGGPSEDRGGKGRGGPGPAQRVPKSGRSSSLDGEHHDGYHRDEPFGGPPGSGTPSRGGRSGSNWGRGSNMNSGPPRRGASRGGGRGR
In short: as §1

[3] = molecular target: T3, ZFP36L2 (UniProt P47974)
T3 sequence: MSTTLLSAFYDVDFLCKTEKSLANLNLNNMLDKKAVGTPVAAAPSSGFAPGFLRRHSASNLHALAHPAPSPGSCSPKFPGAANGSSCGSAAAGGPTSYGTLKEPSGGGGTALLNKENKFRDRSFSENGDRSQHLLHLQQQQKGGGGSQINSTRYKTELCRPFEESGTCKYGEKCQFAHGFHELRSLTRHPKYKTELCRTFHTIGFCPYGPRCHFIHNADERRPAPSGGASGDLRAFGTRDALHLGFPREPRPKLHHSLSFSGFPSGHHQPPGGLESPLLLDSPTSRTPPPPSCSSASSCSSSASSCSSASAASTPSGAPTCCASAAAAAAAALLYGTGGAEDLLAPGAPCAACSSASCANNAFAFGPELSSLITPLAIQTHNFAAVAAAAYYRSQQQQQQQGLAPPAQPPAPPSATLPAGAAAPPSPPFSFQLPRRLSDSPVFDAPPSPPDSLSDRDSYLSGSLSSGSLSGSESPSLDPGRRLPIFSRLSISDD
In short: as §1

Sequence | Kd [1] | Kd [2] | Kd [3]
AAUAAA | 8.24 nM | 5.98 nM | 357 nM
UAUUUAU | 482 nM | 338 nM | 11.1 nM
